This series can be described thus: label from the status in PepcDB records.
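Further: failed if final PepcDB status was selected cloned or expressed and not failed if soluble or beyond.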

In the case of “MLGNTLVGRYQIISHLGGGGFGETFVACDTHLPGLPKCVVKKLQPQANDPATLEIARRLFDTEAQVLYKLGSCDRIPQLLAYFEEDAEFYLVQEFIPGHDLSKELTPGKVFTQDEVTILLQEILTILEFVHQQNVIHRDINPRNLLRRQDGKLILIDFGAVKQITTQIVTPTGENKSTVIIGTPGYIPGEQAQGNPKFSSDIYAVGIVAIQALTGLLPHQLEHDADTHEIIWQNHAQVSSEFARFIDKMVCYDFRQRYAAATTALQALTELTQPASNTIAITPTLPPAKFRFNHTKKSIFIKLLLAILLTSATGIASVFVVNSINSNNATDLAKKGNTFFELQRYKDALSAYEQAVDIRPDYAPAWQGKGKTLFRLKQYQDALTAYDKAIQIQPDYVEAWSGRGFSLQNLQRYSEAIASFDKALQLNENYPEVWNARGEAFSNLKQYDQAIKSYDKAIEFNSDAYESFYNKGLALQSMKEYNEAINAYNKAIEIKSDYERAWYNLGNSLVNLNRYEDAFKAYDKAVQYKTDYAIAWLSRGNVLIILRRYPEALESFNQVIKFNPNNYQAWYGRGWSQHQNQRYAEAIESYKKAATIKPSNYEIWYSLGNSQYILQQYQEAIASYNKAVRYRPKHIESWYSRGNALFSLKQYKEAIASYEQAIKHKPDYSQAINARDEAQRQLQAATPKPVVIPVMPTPEFTNPPQDN”, the protein production result is on record as “failed”.
With “MLGVILLYVGMVLMSNGLHRLEGIPDKSNVVMNIFTGGLGLILNIIVIAYGACTGQGAEWFYGSATGLLFAFTYLYSAINTIFDFDQRLYGWFSLFVAINTLPAGILCLTSGYGGNAWYGIIWFLWGVLWLTAFIEINLKKNLGKFVPYLAIFEGIVTAWIPGLLMLWGKW”, the protein production entry is “failed”.
In the case of “MLHELFSVYLKMLVLYSPFFVLSCFISLTRGHSSKERKQLAWKVAFAALVASVLLYLFGRAIFGIFGITADAFRIGAGSVLFISALGMAQGKPAVQADNVQQDVTIVPLTIPLTVGPGTIGALLVMGVSQPHWDEKLLAIVSIALASFTVGLVLYLSHGIERLLGDQGLQIVSRLMGLFVCALAAQIIFTGIRGYLLP” it was “failed”; in that of “MLHLLTLSSLGRDLFNIKMLIVILITIGLITLMTILTYLLEQQVHRRQNRYWTIGAHGAEALSVLISMILLRQIFITLNSGSIISWTYATVQLTILLFSLNTMRNLAVEIINLLMPLFIYGQAIWLGHSTQYLPVFLAMAIILISTVVYITHNYQELHATQWKYLLFQILYSGTWWGVIWSVHPFKLSHTLVIILAFVLYMWLIRLAVNRVQKFFNEVLTFDQQVNYDELTGIRNRASFDTHAREVFAAYQHHQMGPVTMVMFDIDHFKAFNDQYGHLAGDAVLRHVAHFVELELNQRSTHGQIFRYGGEEFVIIFRGISALEAGQIMRTIQRKLKTVPIKFNVQTLNVTVSIGISELQPTDQTFTDWFVRVDDYLYQSKQAGRDQTTVESQLLTD”, “failed”; in that of “MLHSSIVLVIKEETMNVAKMYDDVSERYQKLVDDSHYVGPRWISGKLKTLPIEQGSALDLACATGSIGHVVKNHYPDLTIHGLDISSKMVDKARQTNLYQSVSVHNLDEPFSPLFEQTFDLITALGFTEFLAEPQQLLECISRKLTANGRCFISFQYHDPDGQDLPRNTYSGSVVHTAYTESEVEQLCQQAGLEVVSLENVIGYVSGVGYVCRYLMLELKKSHR”, “failed”.
With “MLIERIYDEDLAQASYFIGCQAHNTAVVVDPRRDIAVYLDMAKKNGMEIVGVTETHIHADYLSGTRELAAATNATMYVSGEGGADWQYEFDAERICDGSEIRLGNLVLTAVHTPGHTPEHLSFLLKDGAFADEPGFMLTGDFVFAGDLGRPDLLDEAAGGVDTRFEGARQMFKSLKEKFLTLPDHIQIFPGHGSGSACGKALGSVPSTTLGYERQFAWWGKYLEADDEQGFIDELLEGQPDAPAYFGRMKRQNRQGPAIMGARELLPQLEASDLHDVIVVDTRSADEVHQGTVAGAVNIPAGNSMAKFGSWTVDPEKDSRALVLLAASQIGAMEMWDHMVRVGIDNVAGFITNFDGVDLVAPQTVSPDQLDELEYDLLLDVRNRSEVEEGYIPGALHINGASVLWNLEKLPRDGKIVSYCKSGTRSSIAASTLRNAGFDVVELQGSYDNWVRHNAQLEHHHHHH”, the protein production entry was “not failed”.
Under “MLIKLTGGTVYDPANGIDGQVRNLFIRDGRIVHSLNGATPDQEYDLRGKVVMAGAIDMHTHIGGGKVTIARNLLPELEHHHHHH” stands “not failed”; under “MLIRKADAQDLDAICRLAAQINRQHHQALPELFLAAADADADRAFWRARLEGEDSVLLVAEREGAVLAFLTAQLQSSPPLPFLQARRICRIGTIVVDEACQGQGIGSRLLAAAEDWGRRQDADELRLEVMQFNQGALAFYARHGLAAQSQIMSKSLAGAAR”, “failed”.
In the case of “MLIRPATTADFDALRAIELAAFETLRAAGAVSGSASASTDQQLQRYLDHGLLDVACDQSGEPIGFCGGYIAESFLHIGEMDVHPAWQRQGVGRRLLTALLEEARARKADGATLTTDRLVPFNAPFYASLGFRPLADDELPAKLREILDAEANMGLDPDRRIAMMLRF” it was “failed”.
In the case of “MLIVDTILKPDRFGGIGLFSATRLPKGSLIWIHNPIVDITVTPEQYEALAPTFQALLDKHAYPRDYKAYDGVIEYNADNARFMNHSSRPNTYQDDRRVFTARDVQPGEELTCNYLFFDPRCDVSWNEEPSMNLDAPTG”, the protein production entry is “failed”.
Under “MLKKIREEFGCIFARDPAAQSFFEILTVYPGVHAVLIHRFSHWLWNHGLHWPARVLSYLARWATGIEIHPGATLGRRLFIDHGMGVVIGETAVIGDDCTLYHGVTLGGTSWQKGKRHPTLGNGVVVGAGAKVLGPITVGDGARIGSNSVVLRTVPAGATVVGIPGHIINPDRRAQEAQRLAIASRLGFDAYGMTPDMPDPVAHAINHMLDHIQALDQQVAKLKEVLRERGIDLEEAPLPDLDDCQLDPGEPQVTVNSSRTGLEHHHHHH” stands “not failed”; under “MLKKLAGALRTLMSVPADNPRLLEAQYVALSRQLPLMYFVLLVNTWALAFTHRETAPVWLTLLVPVLLTVICGIRARKWLLTVNRPPPAAATILATLRGTNSLAGVIAAGFAAWSLSLYPYGGPYAQAHVAFFMGITVIVCIFCMMHLRPAALTTAVVVNTAFVIFFASTHNLIFIATAVNIVLVSIGMLIILHHQYRDFTSLVDVQVRTEQLSNENLLLANKDSLTGLPNRRQFFQTLDAAMSEALALRSKLAVGVLDLDGFKPVNDLYGHRTGDRLLMLVAERLNSVASNTVHVSRLGGDEFALVIKGDISNEALLALGKHLCDLMHESFELSDMPIQIGATLGMATFPASADNATQLFEFADYALYQGKNHNPGTTCLFSASHREQLHTDGVTEQALRRANLETEFHVMFQPIIESCTCETVAFEALARWNSPELGAVSPAHFIPIAERIGMINKLTAPLLTHALQMALSWPAPIRLSFNLSAHDCATWESVSTIVEIIENSGFDASRLDLEITETAVMQDIAQVQQAIAQFRQLGCGISLDDFGTGFSSLSQLHALALTKLKIDRSFVTGVHDNPASYKIVKSLVALSLDMSLGCVIEGVETQDELNALTSLGCTMVQGYFYSPPISFAETLAWLETPDHERAFGYAAACRI”, “failed”; under “MLKKMLKSYDYSLIFAIVLLCGFGLVMVYSSSMITAVSRYGVSSNFFFMRQLFALIAGGALFILMALFPYKALAHQKFQKGILLVSVLALISLFVFGHVAGNAQSWFKIGGMSIQPGEFVKLVVILYLAAVYAKKQSYIDHLLTGVAPPVVMTLIICGLIAMQPDFGTAMIIGLIATCMILCSGFSGKTLVRLVILGGIVFILVSPIIYLNQDKILTEGRLARFESLEDPFKYANSSGLQVINSYYAISSGGIFGLGLGESIQKYGYLPESHTDFIMAVIAEELGIFGVLFVIFLLGFVVIKGFYIARKCEDPFGSLLAIGISSMIAIQSFINLGGVSGLIPITGVTLPFISYGGSSLVLLLGSMGILANISMFVKYSENKKKKEPLAPKGMKKKQLKKTVYL”, “failed”.
As for “MLKLFAKYTSIGVLNTLIHWVVFGVCIYVAHTNQALANFAGFVVAVSFSFFANAKFTFKASTTTMRYMLYVGFMGTLSATVGWAADRCALPPMITLVTFSAISLVCGFVYSKFIVFRDAK”, the protein production entry is listed as “failed”.
In the case of “MLKLTATKQTSQQRSLKMNTLTKLLAATMTLSAQAMAATPLTLDVYNADGNSFHVNATVVYGETEAMVVDTGFTKADALRIGAKVLDSGKTLKTIFISQADPDYYFGAEVLKQMFPQAEVIATPGVKAKIEQKLQGKLDFWAPKMGANAPVKPVLPTAYQGKTLEIDGQTIEIRGTEGELKHRPYLWIPANAAILGNVAVYGNVHLWMADAQTDSERKAWAEQLDEMAALKPKVVIPGHMTPGTAMDSSAITFSQKYLADFAKAKASSKNSAQLIEKMSKIYPDAGLPMALEIGAKVHTGEMKW” it was “failed”.
For the sequence “MLKNHPKGLISASLTNMGERFGFYIMMGILLLFLQAKFGLSGKEASVIYSIFYASVYVLALVGGIIADSMKNYKGTILVGLIVMAAGYVMLGIPTPTQATGMTPWLIFTCAALAFISFGNGLFKGNLQALVGRMYDNDTYRDKRDSGFSLFYMFINVGAVFAPLVAVAIRNWWVQHNGFVYNADLPERCHQILNGTLPENAKAQVMEMIQAANNGTAVATEGLQEFALKYIQVFSTGFHYAFLAAVFFMAISFLIYIINKHQYPADQKANAVTEAHKDQKQEIKMAADEIRQRIIALCAVFGVVIFFWMSFHQNGVSLTQFAKDYIDLSSVKLDLGFTSIVGAEMFQSINPFFVVTLTPLLLFIFGFLKKRNMEPSTPKKIVIGMFIAALAFVVMAIGSMGLPTFEERNAGVEFTKVSPWLMVLTYMILTIAELFISPMGISFVSKVAPPHLQGIMQGLWLCATAVGNSLLFVGMILYESLSISATWIVFTCACALSMLVMLSMVKWLERVAK”, the protein production entry is “failed”.
In the case of “MLKQIRPLYLLLYLTPLMFDIILLYTYLDNGIIYWLDSNYPFSPLILLRKILFYYWNDPFFPGAPLFYSQDSLFMGIIIFLLYNIFHFSLELSEFIYLLLFIYLSQVGFVKLLNIIFEILEKRYSSYFTLIAGLLGGFIYSWGFYSYTPPILGVNYPFFIFYMLFPLVLYFSIKYIFKEKVISFSLIILYLILASGTLFSEFTYLLWSIVLYLFTVVPIWLLSRKPSFVQFTVKNLVIALIVIVAGLEQLYQTYNASIGAYQVGVHGEFLGKPIVIYETEAQYKNFPLSSFISLYSPEKYEIIGVLIFVLIFATILFIKGKTGKFFAPLLFLLLIIGGLSTGIINVLPLYSLHSTPIGFIAIGLMYSIQYIFSGFPVSFVSSLIIGYTLLYILEYLGKRRNYIKILFILIILLLSSSYIYSFRAGEVHPEIRAFNLPVNATNIFYPPPELVSVGNYLSVHDEFYNVIEFPMQYAAGMYDNNGTKAVWYTIYPLSDYIMGQVIKSPALANNAIIKSLANSAIYPIYKYFPAFNITNITNYFVLLGAKYIVLNKQEYPGPGVPLGYAGGYPWNYTKFIEALARTPNITLVMENSYYNVYMINLNVSLLYPSEGLAENLSSDQLFFLYANNMLKAQKQSVIYGLGAINITNISGVHIRVVNDYCNEVYEIQVNASRPFYLVFDEGYSPLWEVTINGEINTHHYIANGYANAWLMPAGNYVATLKLSILQTVHITYLLVFLGFIILVLIYVLQRFKIFRYFKNY”, the protein production result was “failed”.
In the case of “MLKQRIITALLLVPVALYGVFMLPLWGFALFIQGVLMLGAWEWSPLMGVRRISARIAYTLFVGAIIGVLSWLAPYEHLWEGGELSKLIYYTILAGGVWWVVALAMIVNYPSSRRMWSRTRAIVGVFGLLIFIPTWAALVTVRSIDIDESRFFGGWVVLFILLLVWAADVGAYFAGVRYGRNKMMPAVSPGKTMEGLCGGVTLAFVVMMVVAHWTKVPADQFTGYYLTGLFTVVASVFGDLNESMFKRSAGVKDSGSILPGHGGILDRIDSLTAAVPIFTLAYLEFLH” it was “failed”.
